Target: T1, CTLA4 Fc bIgG1aWinSS (canine; bovine, UniProt Q9XSI1 36-161, limits assumed)
T1 construct: No linker
T1 sequence: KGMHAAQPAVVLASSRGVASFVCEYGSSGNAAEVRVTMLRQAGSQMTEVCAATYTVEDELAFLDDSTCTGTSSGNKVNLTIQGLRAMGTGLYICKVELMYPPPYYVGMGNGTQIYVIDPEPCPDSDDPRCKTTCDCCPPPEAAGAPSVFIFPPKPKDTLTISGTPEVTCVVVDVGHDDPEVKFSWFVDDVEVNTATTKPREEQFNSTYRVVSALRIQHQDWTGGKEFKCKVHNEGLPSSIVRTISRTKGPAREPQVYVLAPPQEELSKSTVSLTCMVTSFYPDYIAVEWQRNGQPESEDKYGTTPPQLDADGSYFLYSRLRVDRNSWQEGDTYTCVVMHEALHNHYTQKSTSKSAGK
Experiment: SPR Biacore, biotinylated receptor on SA sensor, pH 7.4, 15 C

B1: recombinant bovine FcgR2 (receptor)
chain: KPDLPKAVVTIQPAWINVLREDHVTLTCQGTSFSAGNLTTWFHNGSSIHTQKQPSYSFRAGSNDSGSYRCQREQTSLSDPVHLDVISDWLLLQTPSLVFQEGEPIMLRCHSWRNQPLNKITFYQDRKSKIFSYQRTNFSIPRANLSHSGQYHCTAFIGKMLHSSQPVNITVQESSSSGPSSMTHHHHHHAGLNDIFEAQKIEWHE
modifications: biotin on the BAP tag (BirA)
notes: also called bFcgR2; bFcgRII
Kd: 52.5 nM

From patent publication US20230416410A1 (ZOETIS SERVICES, published 2023)
